Experimental findings from US20240417707 are described below.

What all share (test): cell_activity
The subject of data set [1] is Nme2-ABE8e-nt (Neisseria meningitidis).
Data set [2] has as its system Nme2-ABE8e-i1 V106W V106W (in TadA8e) (Neisseria meningitidis).
Data set [3] has as its system Nme2-ABE8e-i1 (Neisseria meningitidis).
Where [4] appears, read: A6 editing, mouse liver in vivo, N4CC PAM.
The mark [5] stands for this setting: up to, off-target A-to-G, mouse liver.

Rosa26 sgRNA ; Rosa26 target: the activity came to 34% in data set [1] (setting [4]), 46% in data set [2] (setting [4]) and 49% in data set [3] (setting [4]).
Regarding Rosa26 sgRNA ; Rosa26-OT1 off-target, the activity amounted to 0.2% in data set [1] (off-target A-to-G, mouse liver); 5% in data set [2] (setting [5]); 7% in data set [3] (setting [5]).
